This is an account of results in patent US20060286066A1 (published 2006).

Numbering of substitutions follows the chain as printed.

T1: TNF receptor 1 Fc fusion protein (R&D Systems) (human, UniProt P19438 30-211, limits assumed)
T1 construct: also called recombinant TNF receptor 1 (p55); not shown: Fc part of the bought fusion protein, captured by an anti-human Fc antibody
T1 sequence (looked up): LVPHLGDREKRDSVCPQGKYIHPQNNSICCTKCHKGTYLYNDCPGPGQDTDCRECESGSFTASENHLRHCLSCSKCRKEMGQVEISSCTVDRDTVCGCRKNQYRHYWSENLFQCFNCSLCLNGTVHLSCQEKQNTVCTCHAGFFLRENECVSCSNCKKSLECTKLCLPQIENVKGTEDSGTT

T2: Biotinylated human TNFRI (human, UniProt P19438 30-211, limits assumed, biotinylated (approx 1 biotin per molecule))
T2 sequence (looked up): T1 sequence (looked up)

B1: TAR2-10-27 Asp62cys blocked (other)
VH: ASTEVQLLESGGGLVQPGGSLRLSCAASGFTFEWYWMGWVRQAPGKGLEWVSAISGSGGSTYYACSVKGRFTISRDNSKNTLYLQMNSLRAEDAAVYYCAKVKLGGGPNFGYRGQGTLVTVSS
modifications: Cys62 blocked with N-ethylmaleimide
notes: For numbering and entry offset see m28
B2: TAR2-10-27 Asp62cys 30K MAL PEG (protein)
VH: B1 VH
modifications: 30K MAL-PEG on Cys62
B3: TAR2-10-27 Gln13cys 30K MAL PEG (other)
VH: B1 VH with Q16C, C65D
modifications: 30K MAL-PEG on Cys13
notes: as for B1
B4: TAR2-10-27 Gln112cys blocked (other)
VH: B1 VH with C65D, Q115C
modifications: Cys112 blocked with N-ethylmaleimide
notes: as for B1
B5: TAR2-10-27 Ser120cys 30K MAL PEG (other)
VH: B1 VH with C65D, S123C
modifications: 30K MAL-PEG on the C-terminal Cys (Ser120cys)
notes: TAR2-10-27 cys; For the limits of the entry see m36; also called TAR210-27 30K MAL PEG
B6: TAR2-10-27 Pro41cys 30K MAL PEG (other)
VH: B1 VH with P44C, C65D
modifications: 30K MAL-PEG on Cys41
notes: as for B1
B7: TAR2-10-27 Thr117cys blocked (other)
VH: B1 VH with C65D, T120C
modifications: Cys117 blocked with N-ethylmaleimide
notes: as for B1
B8: TAR2-10-27 Gln112cys 30K MAL PEG (other)
VH: B1 VH with C65D, Q115C
modifications: 30K MAL-PEG on Cys112
notes: as for B1
B9: TAR2-10-27 Thr117cys 30K MAL PEG (other)
VH: B1 VH with C65D, T120C
modifications: 30K MAL-PEG on Cys117
notes: as for B1
B10: TAR2-10-27 Glu89cys blocked (other)
VH: B1 VH with C65D, E92C
modifications: Cys89 blocked with N-ethylmaleimide
notes: as for B1
B11: TAR2-10-27 Glu89cys 30K MAL PEG (other)
VH: B1 VH with C65D, E92C
modifications: 30K MAL-PEG on Cys89
notes: as for B1
B12: TAR2-10-27 Gln13cys blocked (other)
VH: B1 VH with Q16C, C65D
modifications: Cys13 blocked with N-ethylmaleimide
notes: as for B1
B13: TAR2-10-27 Pro41cys blocked (other)
VH: B1 VH with P44C, C65D
modifications: Cys41 blocked with N-ethylmaleimide
notes: as for B1
B14: TAR2-10-27 Ser120cys blocked (other)
VH: B1 VH with C65D, S123C
modifications: C-terminal Cys (Ser120cys) blocked with N-ethylmaleimide
notes: TAR2-10-27 cys; the entry already carries Ser120cys
B15: TAR2-10-27 Leu115cys blocked (other)
VH: B1 VH with C65D, L118C
modifications: Cys115 blocked with N-ethylmaleimide
notes: as for B1
B16: TAR2-10-27 Leu115cys 30K MAL PEG (other)
VH: B1 VH with C65D, L118C
modifications: 30K MAL-PEG on Cys115
notes: as for B1
B17: HEL4 PEGylated with SPA-PEG (other)
VH: EVQLLESGGGLVQPGGSLRLSCAASGFRISDEDMGWVRQAPGKGLEWVSSIYGPSGSTYYADSVKGRFTISRDNSKNTLYLQMNSLRAEDTAVYYCASALEPLSEPLGFWGQGTLVTVSS
modifications: SPA-PEG on surface lysine residues (sites not given)
notes: also called PEGylated HEL4
B18: HEL4 PEGylated with NHS-PEG (other)
VH: B17 VH
modifications: NHS-PEG on surface lysine residues (sites not given)
notes: also called PEGylated HEL4; HEL4 40K PEG-NHS
B19: TAR210-27 2 × 20K MAL PEG (other)
VH: B1 VH with C65D, S123C
modifications: 2 × 20K (40K branched) MAL-PEG on the C-terminal Cys (Ser120cys)
notes: For the limits of the entry see m36; also called 40K PEGylated monomer (TAR2-10-27)
B20: TAR210-27 5K MAL PEG (other)
VH: B1 VH with C65D, S123C
modifications: 5K MAL-PEG on the C-terminal Cys (Ser120cys)
notes: For the limits of the entry see m36
B21: TAR210-27 20K MAL PEG (other)
VH: B1 VH with C65D, S123C
modifications: 20K MAL-PEG on the C-terminal Cys (Ser120cys)
notes: as for B20
B22: TAR210-27 2 × 10K MAL PEG (other)
VH: B1 VH with C65D, S123C
modifications: 2 × 10K MAL-PEG on the C-terminal Cys (Ser120cys)
notes: as for B20

By IC50 is commonly meant the concentration that inhibits the measured activity by half. A higher IC50 goes with weaker potency. One may read the koff as the first-order rate constant of dissociation. A low value points to slow dissociation. For orientation: kon means a measure of how fast the partners come together. A lower kon goes with slow association. Usually Kd stands for the concentration at which binding is half-saturated. Low values mean tighter binding, high ones weaker binding.

Sequence of hen egg white lysozyme (P00698 19-147 limits assumed): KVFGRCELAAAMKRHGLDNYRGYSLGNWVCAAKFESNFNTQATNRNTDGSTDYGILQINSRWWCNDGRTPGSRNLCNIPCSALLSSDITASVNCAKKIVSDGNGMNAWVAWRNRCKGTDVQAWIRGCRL

The target of one experiment is p55 TNF-α receptor on MRC-5 cells (human) (UniProt P19438). The experiment can be described thus: cell-based or functional assay.
Sequence of p55 TNF-α receptor on MRC-5 cells (human) (P19438 30-455): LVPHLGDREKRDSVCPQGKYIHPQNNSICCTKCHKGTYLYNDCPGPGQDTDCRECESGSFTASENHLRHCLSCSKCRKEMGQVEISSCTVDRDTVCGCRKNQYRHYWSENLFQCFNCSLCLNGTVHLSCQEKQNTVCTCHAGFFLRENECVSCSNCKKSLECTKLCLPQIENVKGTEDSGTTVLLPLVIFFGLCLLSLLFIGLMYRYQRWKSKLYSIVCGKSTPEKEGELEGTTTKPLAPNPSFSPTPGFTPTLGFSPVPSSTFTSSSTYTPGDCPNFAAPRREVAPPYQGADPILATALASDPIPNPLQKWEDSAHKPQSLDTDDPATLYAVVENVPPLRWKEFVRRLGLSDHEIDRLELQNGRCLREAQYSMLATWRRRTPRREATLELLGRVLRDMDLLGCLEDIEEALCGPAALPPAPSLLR
For the molecule B1, the MRC5 cell assay ND 50 came out at 430 nM.
The same measure, in the same setting: then B2, with 1000 nM; and B3, with 200 nM; and B4, with 15 nM.
The same measure, in the same setting: then B5, with 600 nM; and B6, with 200 nM.
B7: the MRC5 cell assay ND 50 is 30 nM.
Still for that read-out and setting: then B8, with 650 nM.
On to B9, for which the MRC5 cell assay ND 50 came to 700 nM.
Still for that read-out and setting: for B10 the value was 70 nM; for B11, 100 nM; for B12, 30 nM.
As to B13, the MRC5 cell assay ND 50 came to 45 nM.
The same measure, in the same setting: then B14, with 30 nM.
With B15, the MRC5 cell assay ND 50 amounted to 30 nM.
On the same count and under the same terms, then B16, with 300 nM.

A further experiment deals with hen egg white lysozyme (hen, UniProt P00698 19-147). Description: batch binding to lysozyme-Sepharose affinity resin, SDS-PAGE read-out. On the procedure:
A HEL4 affinity based resin (based on the antigen, hen egg white lysozyme) was produced to test the functionality of the PEGylated dAb. Lysozyme was coupled to NETS activated Sepharose 4B resin (Amersham Pharmacia) following the manufacturer's instructions. The PEGylated samples (5 μg) were then mixed with the affinity resin (100 μl) and allowed to bind in PBS at room temperature for 30 mins. The resin was then extensively washed with PBS (3×1 ml) to remove unbound protein. The affinity resin was then run on a SDS-PAGE to determine if the PEGylated HEL4 had bound to the matrix (see Section 8.3).
With B17, the binding result is reported as “binds”.
Still for that read-out and setting: then B18, with “binds”.

The next experiment concerns the target T1, TNF receptor 1 Fc fusion protein (R&D …). The experiment can be described thus: TNF receptor binding assay: dAb titrated against TNF binding to TNF receptor 1.
Consider B19, for which the IC50 was approximately 20 nM.

The target in another experiment is T2, Biotinylated human TNFRI. Description: SPR (Biacore), biotinylated human TNFRI on streptavidin chip, dAb injected. The source says:
(§1) The effect of PEGylation on the binding affinity of TAR2-10-27 for its antigen was investigated using Biacore. All the PEGylated formats were generated using TAR2-10-27cys (see Example 2). The following methodology was used to determine the on and off rates of each PEGylated dAb format for the antigen. Biotinylated human TNFRI (approx 1 biotin per molecule) was coated onto a single flow cell of a Biacore streptavidin sensor chip at a density of approximately 400 RU. A concentration series of each dAb or PEGylated dAb (2.6 μM, 770 nM, 260 nM, 77 nM and 2.6 nM) was sequentially injected (45 μl injection at a flow rate of 30 μl/min) over both the TNFRI coated flow cell and an uncoated flow cell (streptavidin), (a subtractive curve was generated by subtracting the uncoated flow cell curve from the TNFRI flow cell curve). The off-rate was analysed for five minutes after the injection of each sample after which the surface was regenerated by injection of 10 mM glycine pH 3.
(§2) Data generated from the Biacore was fitted using the curve fitting software (Biaevaluation 3.2) and the association constant (kₐ) and dissociation constant (kd) determined (Table 8).
A general note: Surface plasmon resonance follows binding to a sensor surface in real time, without labels.
B20 returned a koff of 0.011 s⁻¹ and a kon of 90000 M⁻¹ s⁻¹.
For B5, the koff was 0.00769 s⁻¹ and the kon was determined as 83400 M⁻¹ s⁻¹.
For B21, in that order: 0.012 s⁻¹ and 79900 M⁻¹ s⁻¹.
For B19, in that order: 0.00517 s⁻¹ and 74700 M⁻¹ s⁻¹.
For B22, in that order: 0.00954 s⁻¹ and 120000 M⁻¹ s⁻¹.
B14 had a koff of 0.00596 s⁻¹ and a kon of 577000 M⁻¹ s⁻¹.

The target in another experiment is T1, TNF receptor 1 Fc fusion protein (R&D …). Description: DOM1 receptor binding assay (RBA): dAb titrated against TNF binding to TNF receptor 1. As for the experimental part:
Assays for the measurement of receptor binding by a ligand, e.g., a cytokine, are known in the art. […] Briefly, Maxisorp plates are incubated overnight with […] anti-human Fc mouse monoclonal antibody (Zymed, San Francisco, USA). […] The plate is washed to remove any unbound protein before the detection step. […] The reaction is stopped by the addition of HCl and the absorbance is read at 450 nm.
Take B1: the IC50 was 15 nM.
Same read-out and setting: for B3 the value was 8 nM; for B4, 2 nM.
B5 had an IC50 of 10 nM.
Same read-out and setting: then B6, with 8 nM; and B7, with 3 nM; and B8, with 15 nM.
Same read-out and setting: for B9 the value was 8 nM.
Same read-out and setting: then B10, with 3 nM; and B11, with 20 nM.
In turn, B12 displayed an IC50 of 2 nM.
The same measure, in the same setting: for B13 the value was 1 nM; for B14, 3 nM.
B15: the IC50 stood at 3 nM.
On the same count and under the same terms, for B16 the value was 10 nM.

Another experiment deals with T2, Biotinylated human TNFRI. The experiment can be described thus: SPR (Biacore), biotinylated human TNFRI on streptavidin chip, dAb injected; KD from mean kd/ka.
Text: as §1, §2
For the molecule B20, the affinity, expressed as Kd, was 122 nM.
With B5, the affinity, expressed as Kd, was 92.2 nM.
On the same count and under the same terms, for B21 the value was 150 nM; for B19, 69.2 nM; for B22, 79.5 nM.
On the same count and under the same terms, then B14, with 10.3 nM.
